Source: article doi:10.1101/2023.03.02.530591

Molecular target: Human Macrophage Galactose Lectin (MGL) isoform 2 extracellular domain (residues Q85-H316) (human)
Assay: SAXS

Human Macrophage Galactose Lectin (MGL) isoform 2 extracellular domain (residues Q85-H316) (domain or fragment)
stoichiometry N: 3
